Test results as given in patent US12042530B2, “Target peptides for immunotherapy and diagnostics” (University of Virginia Patent Foundation, priority 2012, dated 2024).
Non-standard residues stand in square brackets, D forms with d. Residues, ends and D or L forms follow the SMILES beside them. No end group written: not given here. pT = C[C@@H](OP(=O)(O)O)[C@H](N)C(=O)O; pS = N[C@@H](COP(=O)(O)O)C(=O)O

What was measured:
[1] = target: T1, HLA-A*0201 (HLA-A2) peptide complexes (Homo sapiens, UniProt P04439, D140Y/D185E/D98H/E176V/E277Q/G131W/G231S/I119V/I121R/I166T/I218V/L300P/L318F/N151K/N90K/P208A/P217A/Q86G/Q94H/R138H/R169H/T345S); experiment: HLA-A*0201 phosphopeptides associated with leukemia samples (isolation of HLA-associated peptides); details: for Copies/cell class, JY: EBV transformed B lymphoblastoid cell line JY; for Copies/cell class, AML1: acute myeloid leukemia sample AML1; for Copies/cell class, CLL1: chronic lymphocytic leukemia sample CLL1; for Copies/cell class, B Cell: healthy B cells; for Copies/cell class, T Cell: healthy T cells; for Copies/cell class, MCL: mantle cell lymphoma sample
T1 construct: endogenous in cells; host or cells: JY B-lymphoblastoid line; primary CLL, MCL, AML, ALL samples; healthy splenic T and B cells
Description: To identify naturally processed tumor-associated phosphopeptides, HLA-A*0201 (HLA-A2) and HLA-B*0702 (HLA-B7) peptide complexes from four (4) chronic lymphocytic leukemia (CLL) tumor samples, a mantle cell lymphoma sample (MCL), one acute lymphoblastic leukemia (ALL), and an acute myeloid leukemia (AML) sample, in addition to healthy splenic T and B-cells and the cultured lymphoblastoid cell line JY were isolated. These efforts yielded 10 HLA-A2-restricted and 86 HLA-B7-restricted phosphopeptide antigens (see Tables 6 and 7).
All cell lines were grown at 37° C. with 5% CO2 in growth medium consisting of RPMI 1640 supplemented with 10% FCS and two mM L-glutamine. Blood or leukapheresis samples were taken from patients with high-burden leukemia in heparin. Tumor cells were recovered by layering the blood over density gradient (Ficoll) and collecting the tumor layer following centrifugation. The tumor was washed in tris-buffered saline (TBS). The purity of the tumor was assessed using flow cytometry and was >98% pure in all cases. For healthy T and B-cell populations, a normal spleen sample processed and tonsil sample was collected and lymphocytes released through mechanical disruption. Mononuclear cells were isolated using a density gradient and 10^9 T cells isolated using anti-CD19 or anti-CD3 microbeads (Miltenyi Biotec Inc., Auburn, California, United States of America) with purity >98% were obtained. Bone marrow sample was obtained from an elective orthopedic procedure and red cell-depleted using hypotonic lysis. This sample was not processed further.
Class I MHC molecules were immunoaffinity purified from the JY cell line or from primary tumor samples, and their associated peptides were extracted as previously described in Zarling et al., 2006. Approximately 1.2-14×10^9 cells were lysed in a solution containing 20 mM Tris-HCl (pH 8.0), 150 mM NaCl, 1% CHAPS, one mM PMSF, five μg/mL aprotinin, 10 μg/mL leupeptin, 10 μg/mL pepstatin A, 1 μg/ml calyculin A, and phosphatase inhibitor (cocktails I and II; Sigma-Aldrich). The mixture was subjected to centrifugation and the resulting supernatant was passed over protein A sepharose pre-loaded with the HLA-A2-specific antibody BB7.2 or HLA-B7-specific antibody MEL Peptides were eluted from the purified class I MHC molecules with 10% acetic acid.

phosphoS33-β-catenin = experiment: Western blot of phosphoS33-β-catenin and β-catenin; format: cell-based, human; details: BIO in the presence of lactacystin
Procedure: Lysates were prepared from ˜80% confluent cells in buffer containing 2% Triton X 100 and protease and phosphatase inhibitors. Samples were separated on 8% SDS-PAGE (Thermo Fischer Scientific Inc., Waltham, Massachusetts, United States of America) and transferred to PVDF membranes (Millipore Immobilon-FL, 0.45 μm; Millipore Corporation, Billerica, Massachusetts, United States of America). Blots were probed with phosphoS33-β-catenin, β-catenin, and GAPDH antibodies overnight at 4° C. and developed by enhanced chemiluminescence (Millipore). Films were scanned and integrated density values determined using AlphaEase software and normalized to values obtained for GAPDH. In some cases, GSK-3 activity was inhibited using 5 μg BIO ((2′Z, 3′E)-6-Bromoindirubin-3′-oxime) and proteasomal degradation was blocked with 10 μg lactacystin (Calbiochem) before cells were lysed.

melanoma cells = experiment: T cell recognition of GSK-3β- and proteasome-inhibited melanoma cells; format: cell-based, human
Procedure: Surface peptide-MHC complexes were denatured from the cells using a mild acid buffer as previously described (Robila et al., 2008) and then allowed to re-express peptide-MHC molecules in the presence of BIO, MeBIO, or 5 μM lactacystin for 12 hours. T cell recognition of the cells was evaluated after 5 hours incubation with pS33-βcat-specific T cells.

HLA A*0201 [2] = target: T2, HLA A*0201 (Homo sapiens, UniProt P04439, D140Y/D185E/D98H/E176V/E277Q/G131W/G231S/I119V/I121R/I166T/I218V/L300P/L318F/N151K/N90K/P208A/P217A/Q86G/Q94H/R138H/R169H/T345S); experiment: HLA-A*0201 peptide-binding competition assay; details: for IC50: FIG. 2F, three independent experiments, triplicate wells, read-out: IC50, competition with a standard peptide for HLA-A2 binding (converted)
Procedure: Affinity purified HLA-A*0201 was incubated with iodinated peptide […] (SEQ ID NO: 2379), graded doses of test peptides, and β2M as previously described (Zarling et al., 2000). Peptide-MHC complexes were captured in W6/32-coated ELISA plates after 48 hours and the dose at which test peptides inhibited binding of the indicator peptide by 50% (IC50) was calculated.

PBMCs = experiment: Memory T cell response, IFNγ ELISpot, healthy A2 positive donors; format: cell-based, human; details: for Day 7 ELISpot, donor alpha: healthy A2 positive donor alpha; for Day 7 ELISpot, donor beta: healthy A2 positive donor beta; for Memory T cell response, in words: healthy donors / patient; for Day 7 ELISpot, donor one: healthy A2 positive donor one
HLA A*0201 [3] = target: T2, HLA A*0201; experiment: Binding to HLA A*0201 (statement)
CD8+ T cells = experiment: ELISpot T cell recognition assay, healthy donors, leukemia-associated phosphopeptides; format: cell-based, human; details: 10 HLA-A2+ and 10 HLA-B7+ healthy individuals, 7 day cultures
Procedure: Immunity against 76 HLA-B7 and 10 HLA-A2 leukemia-associated phosphopeptide antigens was assessed in 10 HLA-A2^+ and 10 HLA-B7^+ healthy individuals (see FIG. 12A).
For ELISpot analysis, PBMCs and CD8^+ T cells were isolated fresh from healthy donors and patients. 1×10^6 PBMCs were isolated from both AML patients and healthy donors and resuspended in AIM-V media (10% human AB serum) in a 96 well plate. Peptide or phosphopeptides were added individually at 10 μg/ml and placed at 37° C. in CO2 incubator for 7 days. Cells were then harvested, washed 4 times, and re-challenged with phosphopeptides, peptides, or anti-CD3 (OKT3, 100 ng/ml, Mabtech, Inc., Mariemont, Ohio, United States of America) as per the manufacturer's instructions. Individual cytokine-producing cells were identified as dark spots after a 15 minute reaction with 5-bromo-4-chloro-3-indolyl phosphate and NBT by means of an alkaline phosphatase conjugate substrate (Mabtech).

HLA A*0301 = HLA A*0301 (Homo sapiens, UniProt P04439); experiment: Binding to HLA A*0301 (statement)

459 (RVASPTSGV; SITE (1)..(109: One or more of the listed amino acids can be phosphorylated as set forth in the Tables; listed as Homo sapiens) [compound 459]
Copies/cell class, CLL2 [1]: 1 (1 indicates <1 copy/cell) | Copies/cell class, CLL3 [1]: 0 | Copies/cell class, CLL4 [1]: 0 | Copies/cell class, JY [1]: 0 | Copies/cell class, AML1 [1]: 0 | Copies/cell class, CLL1 [1]: 1 (1 indicates <1 copy/cell) | Copies/cell class, B Cell [1]: 0 | Copies/cell class, T Cell [1]: 0 | Copies/cell class, MCL [1]: 1 (1 indicates <1 copy/cell)

460 (SMTRSPPRV; SITE (1)..(9): One or more of the listed amino acids can be phosphorylated as set forth in the Tables; listed as Homo sapiens) [compound 460]
Copies/cell class, CLL2 [1]: 0 | Copies/cell class, CLL3 [1]: 1 (1 indicates <1 copy/cell) | Copies/cell class, CLL4 [1]: 0 | Copies/cell class, JY [1]: 0 | Copies/cell class, AML1 [1]: 0 | Copies/cell class, CLL1 [1]: 0 | Copies/cell class, B Cell [1]: 0 | Copies/cell class, T Cell [1]: 0 | Copies/cell class, MCL [1]: 0

464 (VMIGSPKKV; SITE (1)..(9): One or more of the listed amino acids can be phosphorylated as set forth in the Tables; listed as Homo sapiens) [compound 464]
Copies/cell class, CLL2 [1]: 0 | Copies/cell class, CLL3 [1]: 0 | Copies/cell class, CLL4 [1]: 0 | Copies/cell class, JY [1]: 0 | Copies/cell class, AML1 [1]: 0 | Copies/cell class, CLL1 [1]: 0 | Copies/cell class, B Cell [1]: 0 | Copies/cell class, T Cell [1]: 0 | Copies/cell class, MCL [1]: 1 (1 indicates <1 copy/cell)

O=C1Nc2cc(Br)ccc2/C1=C1/Nc2ccccc2/C1=N\O [BIO, (2′Z, 3′E)-6-Bromoindirubin-3′-oxime]
Amount of phosphoS33-β-catenin in melanoma cells (phosphoS33-β-catenin): significantly diminished | pS33-βcat-specific T cell recognition of melanoma cells (melanoma cells; DM331 and SLM2, re-expression of peptide-MHC in presence of inhibitor (5 μM)): completely abrogated recognition of melanoma cells | T cell recognition of Tyr369 (melanoma cells; control epitope): unaffected

CC[C@H](C)[C@H](NC(=O)CNC(=O)[C@H](COP(=O)(O)O)NC(=O)[C@H](CC(=O)O)NC(=O)[C@H](CC(C)C)NC(=O)[C@@H](N)Cc1ccc(O)cc1)C(=O)N[C@@H](Cc1c[nH]cn1)C(=O)N[C@@H](CO)C(=O)NCC(=O)N[C@@H](C)C(=O)O [SEQ ID NO: 427, YLD(pS)GIHSGA] (H-YLD[pS]GIHSGA-OH)
IC50 (HLA A*0201 [2]): 298 nM

CC[C@H](C)[C@H](NC(=O)CNC(=O)[C@H](COP(=O)(O)O)NC(=O)[C@H](CC(=O)O)NC(=O)[C@H](CC(C)C)NC(=O)[C@@H](N)Cc1ccc(O)cc1)C(=O)N[C@@H](Cc1c[nH]cn1)C(=O)N[C@@H](CO)C(=O)NCC(=O)N[C@H](C(=O)O)C(C)C [SEQ ID NO: 2080, YLDsGIHSGV] (H-YLD[pS]GIHSGV-OH)
IC50 (HLA A*0201 [2]): 36.4 nM

CC[C@H](C)[C@H](NC(=O)CNC(=O)[C@H](COP(=O)(O)O)NC(=O)[C@H](CC(=O)O)NC(=O)[C@H](CC(C)C)NC(=O)[C@@H](N)Cc1ccc(O)cc1)C(=O)N[C@@H](Cc1c[nH]cn1)C(=O)N[C@@H](COP(=O)(O)O)C(=O)NCC(=O)N[C@@H](C)C(=O)O [pS33/S37-βcat30] (H-YLD[pS]GIH[pS]GA-OH)
IC50 (HLA A*0201 [2]): 575 nM

APRRYsSSL (APRRY[pS]SSL; listed as Homo sapiens) [SEQ ID NO: 267]
Day 7 ELISpot, donor alpha (PBMCs): ++ (25-99 spots) | Day 7 ELISpot, donor beta (PBMCs): + (3-24 spots) | Memory T cell response, in words (PBMCs): Two healthy donors (HD) responded | Binding to HLA A*0201 (HLA A*0201 [3]): does not bind to A*0201

IMDRtPEKL (IMDR[pT]PEKL; listed as Homo sapiens) [SEQ ID NO: 398]
Day 7 ELISpot, donor alpha (PBMCs): +++ (>100 spots) | Day 7 ELISpot, donor one (PBMCs): + (3-24 spots)

KLIDRTE(pS)L (KLIDRTE[pS]L; listed as Homo sapiens) [SEQ ID NO: 440]
Immune response in healthy donors, in words (CD8+ T cells): not immunogenic

RQA(pS)IELPSM (RQA[pS]IELPSM; listed as Homo sapiens) [SEQ ID NO: 451]
Immune response in healthy donors, in words (CD8+ T cells): not immunogenic

RTFpSPTYGL (RTF[pS]PTYGL; listed as Homo sapiens) [SEQ ID NO: 457]
Day 7 ELISpot, donor one (PBMCs): + (3-24 spots) | Day 7 ELISpot, donor three (PBMCs; healthy A2 positive donor three): + (3-24 spots)

RVAsPTSGVK (RVA[pS]PTSGVK; listed as Homo sapiens) [SEQ ID NO: 65]
Binding to / presentation by HLA A*0301 (HLA A*0301): bind to HLA A*0301 | Binding to HLA A*0201 (HLA A*0201 [3]): Neither of the A*0301 peptides bind to A*0201

RVAsPTSGVKR (RVA[pS]PTSGVKR; listed as Homo sapiens) [SEQ ID NO: 66]
Binding to / presentation by HLA A*0301 (HLA A*0301): bind to HLA A*0301 | Binding to HLA A*0201 (HLA A*0201 [3]): Neither of the A*0301 peptides bind to A*0201

TPRVTGGGAM (Artificially synthesized cytomegalovirus peptide) [TPR (CMV), cytomegalovirus (CMV) peptide, reference compound]
Day 7 ELISpot, donor alpha (PBMCs): +++ (>100 spots) | Day 7 ELISpot, donor one (PBMCs): + (3-24 spots)

VMIGpSPKKV (VMIG[pS]PKKV; listed as Homo sapiens) [SEQ ID NO: 426]
Day 7 ELISpot, donor alpha (PBMCs): ++ (25-99 spots) | Day 7 ELISpot, donor beta (PBMCs): + (3-24 spots) | Day 7 ELISpot, donor one (PBMCs): ++ (25-99 spots) | Day 7 ELISpot, donor two (PBMCs; healthy A2 positive donor two): ++ (25-99 spots)

VMIGsPKKL
Memory T cell response, in words (PBMCs): strong phosphopeptide-specific memory T cell response | HLA-A*0201 (MHC) binding affinity, in words (HLA A*0201 [2]): weak MHC binding affinity
